Changes are numbered by the printed parent chain. Numbers in names are those of the source.
T1: EsCas13d, nuclease-dead (Eubacterium siraeum, UniProt B0MS50, R295A;H300A;R849A;H854A)
T1 sequence: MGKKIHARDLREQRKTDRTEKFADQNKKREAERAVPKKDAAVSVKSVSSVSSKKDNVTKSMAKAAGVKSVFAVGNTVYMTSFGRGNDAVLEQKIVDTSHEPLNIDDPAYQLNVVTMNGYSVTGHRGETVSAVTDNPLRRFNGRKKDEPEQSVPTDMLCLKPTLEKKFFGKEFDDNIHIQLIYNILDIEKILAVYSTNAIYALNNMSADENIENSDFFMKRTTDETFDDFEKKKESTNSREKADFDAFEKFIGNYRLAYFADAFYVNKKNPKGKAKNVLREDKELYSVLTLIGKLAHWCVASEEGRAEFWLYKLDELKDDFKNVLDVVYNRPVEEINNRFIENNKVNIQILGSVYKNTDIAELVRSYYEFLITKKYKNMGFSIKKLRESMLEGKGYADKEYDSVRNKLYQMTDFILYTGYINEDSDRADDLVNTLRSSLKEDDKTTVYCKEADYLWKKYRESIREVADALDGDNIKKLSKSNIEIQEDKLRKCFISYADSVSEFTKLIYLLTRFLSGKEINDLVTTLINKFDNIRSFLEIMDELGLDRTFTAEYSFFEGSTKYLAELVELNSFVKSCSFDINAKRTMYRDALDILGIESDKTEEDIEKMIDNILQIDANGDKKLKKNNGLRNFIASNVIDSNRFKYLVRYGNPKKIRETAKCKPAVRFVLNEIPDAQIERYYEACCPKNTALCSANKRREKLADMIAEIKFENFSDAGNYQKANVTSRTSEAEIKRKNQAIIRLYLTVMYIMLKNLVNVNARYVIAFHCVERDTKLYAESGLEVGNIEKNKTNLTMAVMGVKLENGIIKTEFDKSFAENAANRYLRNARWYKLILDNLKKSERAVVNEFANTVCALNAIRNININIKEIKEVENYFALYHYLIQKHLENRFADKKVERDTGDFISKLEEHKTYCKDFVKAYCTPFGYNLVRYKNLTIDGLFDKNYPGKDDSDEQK

B1: target 1 insA 3' of 21,insC 3' of 5 (mixed)
RNA 1: CACCCGUGCAAAAAUGCAGGGGUCUAAAACUGAGCGGAUAACCUCUCUAUGG
RNA 2: GGGAAUGGAUCCACAUCUACGAAUUCGUACCAAUAGAGAGGUUAUCCGCCUCACCGAGAUCGGAAGAGCACACGU
B2: target 1 insG 3' of 16,insG 3' of 10 (mixed)
RNA 1: B1 RNA 1
RNA 2: GGGAAUGGAUCCACAUCUACGAAUUCGUACCAUAGAGGAGGUUGAUCCGCUCACCGAGAUCGGAAGAGCACACGU
B3: target 1 insA 3' of 7,insA 3' of 2 (mixed)
RNA 1: B1 RNA 1
RNA 2: GGGAAUGGAUCCACAUCUACGAAUUCGUACCAUAGAGAGGUUAUCACGCUCAACCGAGAUCGGAAGAGCACACGU
B4: target 1 insU 3' of 18,insG 3' of 9 (mixed)
RNA 1: B1 RNA 1
RNA 2: B2 RNA 2 with G35U, A36G, G37A, G44A, A45G
B5: target 1 insC 3' of 19,insC 3' of 5 (mixed)
RNA 1: B1 RNA 1
RNA 2: B1 RNA 2 with A33U, U34C
B6: target 1 insU 3' of 20,insC 3' of 3 (mixed)
RNA 1: B1 RNA 1
RNA 2: B1 RNA 2 with A33U, C50U, U51C
B7: target 1 C7U,C21A (mixed)
RNA 1: B1 RNA 1
RNA 2: GGGAAUGGAUCCACAUCUACGAAUUCGUACAAUAGAGAGGUUAUUCGCUCACCGAGAUCGGAAGAGCACACGU
B8: target 1 insA 3' of 22,insG 3' of 22 (mixed)
RNA 1: B1 RNA 1
RNA 2: B2 RNA 2 with C31A, A32G, U33C, G35U, G38A, A39G, G40A, U42G, G44U
B9: target 1 insA 3' of 6 (mixed)
RNA 1: B1 RNA 1
RNA 2: GGGAAUGGAUCCACAUCUACGAAUUCGUACCAUAGAGAGGUUAUCCAGCUCACCGAGAUCGGAAGAGCACACGU
B10: target 1 insG 3' of 9,insC 3' of 3 (mixed)
RNA 1: B1 RNA 1
RNA 2: B3 RNA 2 with U44G, C45U, A46C, A52C
B11: target 1 C6G,G17C (mixed)
RNA 1: B1 RNA 1
RNA 2: B7 RNA 2 with A31C, G35C, U45C, C46G
B12: target 1 insG 3' of 21,insU 3' of 7 (mixed)
RNA 1: B1 RNA 1
RNA 2: B1 RNA 2 with A32G, C47U, G48C, C49G
B13: target 1 insU 3' of 13,insA 3' of 6 (mixed)
RNA 1: B1 RNA 1
RNA 2: B2 RNA 2 with G38A, A39G, G40U, G44A, A45U, U46C, C48A
B14: target 1 U11A,G12C (mixed)
RNA 1: B1 RNA 1
RNA 2: B7 RNA 2 with A31C, G40C, U41A, U45C
B15: target 1 U3C,A14C (mixed)
RNA 1: B1 RNA 1
RNA 2: B7 RNA 2 with A31C, A38C, U45C, U49C
B16: target 1 A9G,A16G (mixed)
RNA 1: B1 RNA 1
RNA 2: B7 RNA 2 with A31C, A36G, A43G, U45C
B17: target 1 insA 3' of 21,insA 3' of 12 (mixed)
RNA 1: B1 RNA 1
RNA 2: B1 RNA 2 with U42A, A44U, U45A, C46U, G48C, C49G
B18: target 1 insG 3' of 19,insC 3' of 9 (mixed)
RNA 1: B1 RNA 1
RNA 2: B1 RNA 2 with A33U, U34G, U45C, C46U, G48C, C49G
B19: target 1 G13U (mixed)
RNA 1: B1 RNA 1
RNA 2: B7 RNA 2 with A31C, G39U, U45C
B20: target 1 A1U,G13U (mixed)
RNA 1: B1 RNA 1
RNA 2: B7 RNA 2 with A31C, G39U, U45C, A51U
B21: target 1 insA 3' of 7,insU 3' of 1 (mixed)
RNA 1: B1 RNA 1
RNA 2: B3 RNA 2 with A53U
B22: target 1 insA 3' of 8,insG 3' of 7 (mixed)
RNA 1: B1 RNA 1
RNA 2: B2 RNA 2 with G38A, A39G, G41U, U43A, G44U, U46C, C47G
B23: target 1 A1U,A20C (mixed)
RNA 1: B1 RNA 1
RNA 2: B7 RNA 2 with A31C, A32C, U45C, A51U
B24: target 1 insG 3' of 16,insG 3' of 16 (mixed)
RNA 1: B1 RNA 1
RNA 2: B2 RNA 2 with A39G, G40A, U42G, G44U
B25: target 1 A1U,G12C (mixed)
RNA 1: B1 RNA 1
RNA 2: B7 RNA 2 with A31C, G40C, U45C, A51U
B26: target 1 insA 3' of 11,insG 3' of 7 (mixed)
RNA 1: B1 RNA 1
RNA 2: B2 RNA 2 with G38A, A39G, G41U, U42A, G44A, A45U, U46C, C47G
B27: target 1 A1G,G13U (mixed)
RNA 1: B1 RNA 1
RNA 2: B7 RNA 2 with A31C, G39U, U45C, A51G
B28: target 1 insU 3' of 7,insA 3' of 7 (mixed)
RNA 1: B1 RNA 1
RNA 2: B3 RNA 2 with A46U, C47A, G48C, C49G, U50C, C51U, A52C
B29: target 1 insC 3' of 17,insA 3' of 17 (mixed)
RNA 1: B1 RNA 1
RNA 2: B2 RNA 2 with A36C, G37A, G38A, A39G, G40A, U42G, G44U
B30: target 1 insU 3' of 14,insC 3' of 10 (mixed)
RNA 1: B1 RNA 1
RNA 2: B2 RNA 2 with G38A, A39U, G44C
B31: target 1 insA 3' of 19,insU 3' of 6 (mixed)
RNA 1: B1 RNA 1
RNA 2: B1 RNA 2 with A33U, U34A, G48U, C49G
B32: target 1 insU 3' of 20,insC 3' of 15 (mixed)
RNA 1: B1 RNA 1
RNA 2: B2 RNA 2 with A34U, G35A, A36G, G37A, A39C, G40A, U42G, G44U
B33: target 1 A1U,C6U (mixed)
RNA 1: B1 RNA 1
RNA 2: B7 RNA 2 with A31C, U45C, C46U, A51U

molecular target: T1, EsCas13d, nuclease-dead; test: crRNA (strand 1, pre-loaded); Mg2+; 40 mM Tris-HCl pH 7.5, 150 mM NaCl, 6 mM MgCl2, 1 mM DTT, 0.1% Tween-20, 0.2 mg/ml BSA; 25 C; 10 min per concentration, then washed; conditions: tags: His6-TwinStrep-SUMO cleaved; N-terminal SNAP kept (SNAP-Surface 488); label: 3' end held by stalled T7 RNA polymerase

Row | Binder | Kd
1 | B1 | 45 ± 7 nM
2 | B2 | 31.2 ± 2.2 nM
3 | B3 | 7.2 ± 0.8 nM
4 | B4 | 67 ± 10 nM
5 | B5 | 75 ± 21 nM
6 | B6 | 12.9 ± 1.3 nM
7 | B7 | 24.7 ± 2.5 nM
8 | B8 | 15.2 ± 0.9 nM
9 | B9 | 15 ± 1.3 nM
10 | B10 | 15.9 ± 0.9 nM
11 | B11 | ~41 nM
12 | B12 | 73 ± 9 nM
13 | B13 | 33.9 ± 3.2 nM
14 | B14 | 7.59 ± 0.28 nM
15 | B15 | 84 ± 18 nM
16 | B16 | 37 ± 4 nM
17 | B17 | 48 ± 5 nM

Row | Binder | Kd
18 | B18 | 78 ± 10 nM
19 | B19 | 34 ± 4 nM
20 | B20 | 49 ± 10 nM
21 | B21 | 7.7 ± 0.5 nM
22 | B22 | 13.3 ± 0.8 nM
23 | B23 | 36 ± 8 nM
24 | B24 | 22.5 ± 1.4 nM
25 | B25 | 17.5 ± 1.7 nM
26 | B26 | 16.7 ± 0.7 nM
27 | B27 | 41 ± 7 nM
28 | B28 | 7.75 ± 0.3 nM
29 | B29 | 20.3 ± 1.5 nM
30 | B30 | 39 ± 10 nM
31 | B31 | 22.9 ± 1.6 nM
32 | B32 | 28 ± 2.2 nM
33 | B33 | 11.4 ± 0.9 nM

— article PMC10786891, “Massively parallel profiling of RNA-targeting CRISPR-Cas13d”
